Test results published in patent US20170081400A1 (CEPHALON, published 2017).

T1: human TL1A extracellular domain with N-terminal HIS and FLAG tag (human, UniProt O95150 72-251)
T1 construct: the whole entry is named; also called TNFSF15
T1 sequence: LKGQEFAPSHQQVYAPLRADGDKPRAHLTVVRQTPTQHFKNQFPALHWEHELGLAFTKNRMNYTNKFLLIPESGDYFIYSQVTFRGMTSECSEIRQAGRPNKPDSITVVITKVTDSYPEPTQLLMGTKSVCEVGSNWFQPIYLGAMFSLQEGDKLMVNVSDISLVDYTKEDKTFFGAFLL


Assays:
[1] = target: T1, human TL1A extracellular domain with …; assay: SPR Run 7, antibody on Protein A, TL1A 5 ug/mL, timepoint 220
From the text: (§1) 1.5. Antibody expression and antigen binding as determined by SPR. Using a CM5 sensor chip (GE Healthcare) Protein A (Pierce) was coupled to the chip surface using an amine coupling kit (GE Healthcare). Protein A was coupled on flow cell 1 and 2 (or alternatively 3 and 4) using a BIACORE® T200. […] The amount of supernatant or purified protein (as well as the concentration) injected during the capture stage varied between runs and is specified in the header of the Tables 3-11. At the end of injection of the supernatant or purified antibody the change in response units was measured. This value was reported as Capture Level in Tables 3-11. […] The response units were measured prior to the end of the dissociation phase. […] The sensorgrams were double referenced (flow cell 2 is subtracted from flow cell 1 and a buffer blank). As there were a large number of antibody variants to screen, these were screened across different runs (Tables 3-11). […] A summary of the conditions used in each run is below:
(§2) 2.1. […] In some experiment the antibodies were purified using Protein A chromatography (See 1.4) and purified antibodies were used in BIACORE® (GE Healthcare) experiments.

[2] = target: T1, human TL1A extracellular domain with …; assay: SPR Run 7, antibody on Protein A, TL1A 5 ug/mL, timepoint 44
From the text: as §1, §2

Binder	TL1A Binding Level (Late) [1] [RU]	TL1A Binding Level (Early) [2] [RU]
320-509 (antibody, human IgG1, name in Kabat numbering, V domains shown, full-length human IgG1, lambda) VH: QVQLVQSGAEVKKPGASVKVSCKASGYTFTSYDINWVRQAPGQGLEWMGWLNHNSGNTGYAQKFQGRVTMTADRSTSTAYMELSSLRSEDTAVYYCAREVPETAAFEYWGQGTLVTVSS VL: QSVLTQPPSVSGAPGQRVTISCTSSSSDIGAGLGVHWYQQLPGTAPKLLIEGYYNRPSGVPDRFSGSKSGTSASLTITGLLPEDEGDYYCQSYDGTLSALFGGGTKLTVLG	47	52
320-516 (antibody, human IgG1, name in Kabat numbering, V domains shown, full-length human IgG1, lambda) VH: QVQLVQSGAEVKKPGASVKVSCKASGYTFTSYDINWVRQAPGQGLEWMGWLNPQSGNTGYAQKFQGRVTMTADRSTSTAYMELSSLRSEDTAVYYCAREVPETAAFEYWGQGTLVTVSS VL: QSVLTQPPSVSGAPGQRVTISCTSSSSDIGAGLGVHWYQQLPGTAPKLLIEGYYNRPSGVPDRFSGSKSGTSASLTITGLLPEDEGDYYCQSYDGTLSALFGGGTKLTVLG	86	92
320-512 (antibody, human IgG1, name in Kabat numbering, V domains shown, full-length human IgG1, lambda) VH: QVQLVQSGAEVKKPGASVKVSCKASGYTFTSYDINWVRQAPGQGLEWMGWLNWNSGNTGYAQKFQGRVTMTADRSTSTAYMELSSLRSEDTAVYYCAREVPETAAFEYWGQGTLVTVSS VL: QSVLTQPPSVSGAPGQRVTISCTSSSSDIGAGLGVHWYQQLPGTAPKLLIEGYYNRPSGVPDRFSGSKSGTSASLTITGLLPEDEGDYYCQSYDGTLSALFGGGTKLTVLG	118	126
320-513 (antibody, human IgG1, name in Kabat numbering, V domains shown, full-length human IgG1, lambda) VH: QVQLVQSGAEVKKPGASVKVSCKASGYTFTSYDINWVRQAPGQGLEWMGWLNYNSGNTGYAQKFQGRVTMTADRSTSTAYMELSSLRSEDTAVYYCAREVPETAAFEYWGQGTLVTVSS VL: QSVLTQPPSVSGAPGQRVTISCTSSSSDIGAGLGVHWYQQLPGTAPKLLIEGYYNRPSGVPDRFSGSKSGTSASLTITGLLPEDEGDYYCQSYDGTLSALFGGGTKLTVLG	90	99
320-515 (antibody, human IgG1, name in Kabat numbering, V domains shown, full-length human IgG1, lambda) VH: QVQLVQSGAEVKKPGASVKVSCKASGYTFTSYDINWVRQAPGQGLEWMGWLNPSSGNTGYAQKFQGRVTMTADRSTSTAYMELSSLRSEDTAVYYCAREVPETAAFEYWGQGTLVTVSS VL: QSVLTQPPSVSGAPGQRVTISCTSSSSDIGAGLGVHWYQQLPGTAPKLLIEGYYNRPSGVPDRFSGSKSGTSASLTITGLLPEDEGDYYCQSYDGTLSALFGGGTKLTVLG	67	73
320-510 (antibody, human IgG1, name in Kabat numbering, V domains shown, full-length human IgG1, lambda) VH: QVQLVQSGAEVKKPGASVKVSCKASGYTFTSYDINWVRQAPGQGLEWMGWLNKNSGNTGYAQKFQGRVTMTADRSTSTAYMELSSLRSEDTAVYYCAREVPETAAFEYWGQGTLVTVSS VL: QSVLTQPPSVSGAPGQRVTISCTSSSSDIGAGLGVHWYQQLPGTAPKLLIEGYYNRPSGVPDRFSGSKSGTSASLTITGLLPEDEGDYYCQSYDGTLSALFGGGTKLTVLG	33	44
320-514 (antibody, human IgG1, name in Kabat numbering, V domains shown, full-length human IgG1, lambda) VH: QVQLVQSGAEVKKPGASVKVSCKASGYTFTSYDINWVRQAPGQGLEWMGWLNPASGNTGYAQKFQGRVTMTADRSTSTAYMELSSLRSEDTAVYYCAREVPETAAFEYWGQGTLVTVSS VL: QSVLTQPPSVSGAPGQRVTISCTSSSSDIGAGLGVHWYQQLPGTAPKLLIEGYYNRPSGVPDRFSGSKSGTSASLTITGLLPEDEGDYYCQSYDGTLSALFGGGTKLTVLG	88	96
320-511 (antibody, human IgG1, name in Kabat numbering, V domains shown, full-length human IgG1, lambda) VH: QVQLVQSGAEVKKPGASVKVSCKASGYTFTSYDINWVRQAPGQGLEWMGWLNLNSGNTGYAQKFQGRVTMTADRSTSTAYMELSSLRSEDTAVYYCAREVPETAAFEYWGQGTLVTVSS VL: QSVLTQPPSVSGAPGQRVTISCTSSSSDIGAGLGVHWYQQLPGTAPKLLIEGYYNRPSGVPDRFSGSKSGTSASLTITGLLPEDEGDYYCQSYDGTLSALFGGGTKLTVLG	98	106
